Reference: patent US20250320295A1 (INHIBRX BIOSCIENCES, published 2025)

Tests used:
Human CD8a [1] = target: T1, Human CD8a (human, UniProt P01732 22-235); experiment: flow cytometry, HEK293F cells transfected with full-length human CD8a (GFP+ gate)
T1 construct: also called CD8α; human CD8a-FL
Protocol: (§1) Binding of parental and two of the humanized CD8a-binding polypeptides described above was assessed by flow cytometry on transfected HEK293F cells. The HEK293F cells were transiently transfected with a plasmid encoding full length human or cynomolgus monkey CD8α followed by an IRES and GFP. The transfected cells were plated in a 96-well plate at 30,000 cells per well in FACS buffer (PBS, 1% BSA, 0.1% NaN₃, pH 7.4). Test polypeptides were then diluted to 2× the final concentration of 500 nM and 3-, 4-, and 5-fold serial dilutions were made. FACS buffer with no polypeptide was used as a secondary antibody-only control. Test polypeptides were added to an equal volume of cells, and assay plates were incubated for 30 minutes at 4° C. After washing twice with 150 μL of FACS buffer per well, the cells were resuspended in FACS buffer with fluorescently-labeled anti-human Fc antibody diluted 1:2000. Assay plates were incubated at 4° C. for 20 minutes. After one additional wash with 150 μL of FACS buffer, bound polypeptide was detected by flow cytometry. Flow cytometric detection was performed on an Intellicyt iQue Plus. CD8a-expressing transfected cells were gated as GFP positive, and polypeptide binding was measured as median fluorescence at 647 nm. The data was plotted and analyzed using GraphPad Prism analysis software.

Human CD8a [2] = target: T1, Human CD8a; experiment: flow cytometry, isolated human T cells, CD3+CD4- gate
Protocol: (§2) Binding of parental and two humanized CD8a-binding polypeptides described above was assessed by flow cytometry on isolated human T cells and on isolated cynomolgus monkey PBMC. The isolated cells were plated in a 96-well plate at 200,000 cells per well for cynomolgus monkey PBMC, and 50,000 cells per well for human T cells in FACS buffer (PBS, 1% BSA, 0.1% NaN₃, pH 7.4). […] FACS buffer alone was used as a secondary antibody-only control. Polypeptide dilutions were added to an equal volume of cells, and assay plates were incubated for 30 minutes at 4° C. After washing twice with 150 μL of FACS buffer per well, the cells were resuspended in FACS buffer with fluorescently-labeled anti-human antibody diluted 1:1000 to detect CD8α binding, and fluorescently labeled anti-CD3 antibody (clone SP34.2) diluted 1:40, and anti-CD4 antibody (clone OKT4) diluted 1:100. Assay plates were incubated at 4° C. for 20 minutes. After one additional wash with 150 μL of FACS buffer, CD8α binding was detected by flow cytometry on CD3+CD4− cells. Binding was measured on these cell populations as mean fluorescence at 647 nm. The data was plotted and analyzed using GraphPad Prism analysis software. Flow cytometric detection was performed on an ACEA Biosciences Novocyte-Quanteon Flow Cytometer. The results are shown in Table 6 and 7 and in FIGS. 4A-B.

Human CD8a [3] = target: T1, Human CD8a; experiment: flow cytometry, isolated human T cells, CD4- gate, anti-human Fc detection
Protocol: FACS buffer with no polypeptide was used as a secondary antibody-only control. Polypeptide dilutions were added to an equal volume of cells, and assay plates were incubated for 30 minutes at 4° C. […] Assay plates were incubated at 4° C. for 20 minutes. […] The data was plotted and analyzed using GraphPad Prism analysis software. Flow cytometric detection was performed on an Intellicyt iQue Plus.

Cynomolgus monkey CD8a [4] = target: T2, Cynomolgus monkey CD8a (cynomolgus monkey); experiment: flow cytometry, HEK293F cells transfected with full-length cynomolgus CD8a (GFP+ gate)
T2 construct: whole, on cells; On transfected HEK293F cells (full length) or natively on cynomolgus PBMC T cells; also called cynomolgus CD8a-FL; cynomolgus monkey CD8α
Protocol: as §1

Cynomolgus monkey CD8a [5] = target: T2, Cynomolgus monkey CD8a; experiment: flow cytometry, cynomolgus PBMC, CD3+CD4- gate
Protocol: as §2

T1 sequence (P01732 22-235): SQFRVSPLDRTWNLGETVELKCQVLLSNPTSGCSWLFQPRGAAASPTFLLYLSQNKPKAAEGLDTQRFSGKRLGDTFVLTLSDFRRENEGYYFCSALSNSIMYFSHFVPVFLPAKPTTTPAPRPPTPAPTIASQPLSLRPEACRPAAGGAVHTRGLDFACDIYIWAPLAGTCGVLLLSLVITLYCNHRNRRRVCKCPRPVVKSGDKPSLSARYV

B1: hzB7v10-xELL-Fc (Fc fusion)
chain: EVQLVESGGGEVQPGGSLRLSCAASGFTFDDYAMSWVRQAPGKGLEWVSTITWEGEGTDYAESVKGRFTISRDNAKNTVYLQMSSLRAEDTAVYYCAKGSPELQYDSWGQGTLVTVKPGGDKTHTCPPCPAPGGPSVFLFPPKPKDTLMISRTPEVTCVVVDVSHEDPEVKFNWYVDGVEVHNAKTKPREEQYNSTYRVVSVLTVLHQDWLNGKEYKCKVSNKALPAPIEKTISKAKGQPREPQVYTLPPSRDELTKNQVSLTCLVKGFYPSDIAVEWESNGQPENNYKTTPPVLDSDGSFFLYSKLTVDKSRWQQGNVFSCSVMHEALHNHYTQKSLSLSPGK
notes: Homodimeric VHH-human IgG1 Fc xELL fusion
- Kd (Human CD8a [1]): 0.565 nM
- Kd (Human CD8a [2]): 0.085 nM
- Kd (Human CD8a [3]): 0.106 nM
- Kd (Cynomolgus monkey CD8a [4]): 0.0973 nM
- Kd (Cynomolgus monkey CD8a [5]): 0.0737 nM
